Results reported in publication PMC6820532.

Molecular target: I-Aα^d chain fused to the human IgG1 Fc knob (non-zippered KIH-based BDC2.5mi/IA^g7, α chain) (mouse | human)
Assay: SDS stability on SDS-PAGE; 12% SDS-PAGE of the purified, co-expressed heterodimers; 0.83% SDS, left unboiled ('native') or boiled (100 °C for 5 min); fully denaturing with 20 mM β2-ME

stoichiometry N: 1
Substance: BDC2.5mi peptide tethered to the I-Aβ^g7 chain fused to the human IgG1 Fc hole (non-zippered KIH-based BDC2.5mi/IA^g7, β chain) (Fc fusion)
